Common to all, as to test: cell-based or functional assay
Experiment [1] deals with HIV-1 NL4-3 Gag with HIV-1/SIVmac239 p6 chimera 17-26 (HIV-1 (NL4-3); SIVmac239).
In experiment [2] the target is HIV-1 NL4-3 Gag with HIV-1/SIVmac239 p6 chimera 17-38 (HIV-1 (NL4-3); SIVmac239).
For experiment [3], the target named is HIV-1 NL4-3 Gag with HIV-1/SIVmac239 p6 chimera 17-24 (HIV-1 (NL4-3); SIVmac239).
Experiment [4] has as its target HIV-1 NL4-3 Gag with p6 point mutation F17A (HIV-1 (NL4-3)) (UniProt P12493).
The target in experiment [5] is HIV-1 NL4-3 Gag with p6 point mutation F15A (HIV-1 (NL4-3)) (UniProt P12493).
The target in experiment [6] is HIV-1 NL4-3 Gag with HIV-1/SIVmac239 p6 chimera 17-23(b) (HIV-1 (NL4-3); SIVmac239).
Experiment [7] deals with HIV-1 NL4-3 Gag with HIV-1/SIVmac239 p6 chimera 17-27 (HIV-1 (NL4-3); SIVmac239).
The target in experiment [8] is HIV-1 NL4-3 Gag with HIV-1/SIVmac239 p6 chimera 17-48 (HIV-1 (NL4-3); SIVmac239).
Experiment [9] has as its target HIV-1 NL4-3 Gag with HIV-1/SIVmac239 p6 chimera 17-25 (HIV-1 (NL4-3); SIVmac239).
Experiment [10] concerns the target HIV-1 NL4-3 Gag with HIV-1/SIVmac239 p6 chimera 17-28 (HIV-1 (NL4-3); SIVmac239).

On to “HIV-1 Vpr, myc-tagged (expression vector pcVpr.myc)”, for which the Vpr packaging into virions (immunoblot of pelleted virions) (fold of wild-type) in experiment [1], in [2], in [3], in [6], in [7] and in [8] was 0.33 throughout. The Vpr packaging into virions (immunoblot of pelleted virions) (fold of wild-type) in [9] turned out to be 0.33. Also, the Vpr packaging into virions (immunoblot of pelleted virions) (% decrease against wild-type) in experiment [4] and in experiment [5] was 80 throughout. The substance also had a Vpr packaging into virions (immunoblot of pelleted virions) (% of wild-type) in experiment [10] of 70.

Source of the values: patent US20130183334A1.
